Test [1] addresses T1, KDELR-mCherry (HT1080 stable) (human) (UniProt P24390).
T1 sequence: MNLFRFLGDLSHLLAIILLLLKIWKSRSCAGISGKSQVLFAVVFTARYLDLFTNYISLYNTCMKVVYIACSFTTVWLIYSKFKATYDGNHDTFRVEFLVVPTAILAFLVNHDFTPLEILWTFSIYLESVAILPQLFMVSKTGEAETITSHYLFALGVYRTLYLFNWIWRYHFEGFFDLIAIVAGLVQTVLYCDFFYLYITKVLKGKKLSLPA

For test [2], the target named is T2, Halo-KDELR-V5-VN (human) (UniProt P24390).
T2 sequence: T1 sequence

For the molecule TAEKDEL [TAEKDEL peptide], the phosphorylation of STAT3 (Tyr705) in HT1080 cells stably overexpressing KDELR-mCherry, 50 μM TAEKDEL at 37 °C for 30 min, western blot in test [1] came out at 37%. The Venus signal of Halo-KDELR-V5-VN with Halo-KDELR-myc-VC (split Venus), 30 min against 0 min with 50 μM TAEKDEL peptide in test [2] came to 2 fold.

The values above are taken from publication PMC10880305.
